What all share (assay): cell-based or functional assay
The target in test [1] is FcRI (CD64), high affinity immunoglobulin gamma Fc receptor I, on human monocytes (human) (UniProt P12314).
Test [2] addresses Interleukin-10 (IL-10) released by human monocytes (human) (UniProt P22301).
The target in test [3] is anti-MBP (105-120) monoclonal IgM Mab 1, clone DM1A2C1.

UniProt P12314, sequence (P12314 16-374 limits assumed, form in doubt): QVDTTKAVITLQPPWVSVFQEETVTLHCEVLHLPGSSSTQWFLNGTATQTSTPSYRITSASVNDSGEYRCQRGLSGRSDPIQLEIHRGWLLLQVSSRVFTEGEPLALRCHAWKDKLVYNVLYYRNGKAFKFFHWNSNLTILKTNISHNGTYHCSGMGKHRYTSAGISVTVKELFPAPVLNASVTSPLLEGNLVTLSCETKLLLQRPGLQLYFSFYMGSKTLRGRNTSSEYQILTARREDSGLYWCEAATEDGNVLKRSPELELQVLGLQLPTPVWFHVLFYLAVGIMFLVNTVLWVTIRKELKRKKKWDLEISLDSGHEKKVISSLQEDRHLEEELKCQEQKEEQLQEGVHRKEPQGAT
UniProt P22301, sequence (P22301 19-178 limits assumed): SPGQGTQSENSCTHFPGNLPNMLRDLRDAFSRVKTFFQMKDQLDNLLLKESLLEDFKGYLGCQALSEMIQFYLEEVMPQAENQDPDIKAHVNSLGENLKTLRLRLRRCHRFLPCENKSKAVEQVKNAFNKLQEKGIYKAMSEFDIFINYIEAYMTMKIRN

Take “mouse monoclonal antibody anti-human CD64, IgG1 (Ancell)”: in test [1], the % inhibition of proliferation of human MBP+-T cells (T + PBM + Mab CD64) came out at 100%, the % inhibition of proliferation of human MBP+-T line (T + PBM + Mab CD64) was determined as 98%, the Levels of IL-10 in the supernatants of human monocytes (MNC + Mab CD64) is 3950 pg/mL and the Levels of IL-10 in the supernatants of human monocytes activated with LPS (MNC + LPS + Mab CD64) amounted to 6360 pg/mL.

As for “neutralising monoclonal antibody anti-human IL-10 (R&D Systems)”, in test [2], the % inhibition of proliferation of human MBP+-T line by Mab 1 in the presence of Mab IL-10 (T + PBM + Mab 1 + Mab IL-10) was determined as 0% and the % inhibition of proliferation of human MBP+-T line by Mab CD64 in the presence of Mab IL-10 (T + PBM + Mab CD64 + Mab IL-10) is 0%.

As to QFLGSYL [“scrambled” peptide (QFLGSYL Seq ID no 5)], the % inhibition of proliferation of human MBP+-T cells by Mab 1 in the presence of pep 2 (T + PBM + Mab 1 + pep 2) in test [3] was 98%.

GLQLYFS [peptide 222-228 CD64 (GLQLYFS)]: in test [3], the % inhibition of proliferation of human MBP+-T cells by Mab 1 in the presence of pep 1 (T + PBM + Mab 1 + pep 1) was 0%.
